# Entries after “also recorded” stand apart in the source; their conditions may differ.
# B1: bovine lactoferrin (protein, UniProt P24627 20-708, looked up)
# Lactotransferrin: APRKNVRWCTISQPEWFKCRRWQWRMKKLGAPSITCVRRAFALECIRAIAEKKADAVTLDGGMVFEAGRDPYKLRPVAAEIYGTKESPQTHYYAVAVVKKGSNFQLDQLQGRKSCHTGLGRSAGWIIPMGILRPYLSWTESLEPLQGAVAKFFSASCVPCIDRQAYPNLCQLCKGEGENQCACSSREPYFGYSGAFKCLQDGAGDVAFVKETTVFENLPEKADRDQYELLCLNNSRAPVDAFKECHLAQVPSHAVVARSVDGKEDLIWKLLSKAQEKFGKNKSRSFQLFGSPPGQRDLLFKDSALGFLRIPSKVDSALYLGSRYLTTLKNLRETAEEVKARYTRVVWCAVGPEEQKKCQQWSQQSGQNVTCATASTTDDCIVLVLKGEADALNLDGGYIYTAGKCGLVPVLAENRKSSKHSSLDCVLRPTEGYLAVAVVKKANEGLTWNSLKDKKSCHTAVDRTAGWNIPMGLIVNQTGSCAFDEFFSQSCAPGADPKSRLCALCAGDDQGLDKCVPNSKEKYYGYTGAFRCLAEDVGDVAFVKNDTVWENTNGESTADWAKNLNREDFRLLCLDGTRKPVTEAQSCHLAVAPNHAVVSRSDRAAHVKQVLLHQQALFGKNGKNCPDKFCLFKSETKNLLFNDNTECLAKLGGRPTYEEYLGTEYVTAIANLKKCSTSPLLEACAFLTR
# What was measured:
# B. pseudomallei isolates = assay: microbe, parasite or virus in culture; assay type: cell-based, Burkholderia pseudomallei
# [1] = test system: B. pseudomallei strains 1026b and MSHR 305; assay type: cell-based, Burkholderia pseudomallei
# Bacillus anthracis = assay type: cell-based
# Burkholderia mallei = assay: microbe, parasite or virus in culture; assay type: cell-based
# Yersinia pestis = assay: microbe, parasite or virus in culture; assay type: cell-based
molecule,measurement,setting,value
B1,Minimal Inhibitory Concentration,B. pseudomallei isolates,">91,429 μg/mL"
same,concentration of bLF at which all isolates were capable of growth (highest concentration tested),B. pseudomallei isolates,> 91.429 mg/mL
same,"inhibition of growth, overall result in words",B. pseudomallei isolates,not directly inhibited
same,bacterial growth by T24h compared with positive/untreated control,[1],grew to match or exceed the concentration of the positive control; also recorded: replicate to the same levels as those in the untreated controls
same,"bactericidal effect, overall result in words",[1],much more minor direct bactericidal effect
same,initial reduction in bacterial concentration,[1],1 to 2 log10
same,kill curve: evolution of microbial load during time,[1],impact can be seen at T6h (standalone); also recorded: impact can be seen at T4h (standalone)
same,Minimal Inhibitory Concentration,Bacillus anthracis,">91,400 μg/mL"
same,"inhibition of growth, result in words",Bacillus anthracis,no observed inhibition of growth
same,Minimal Inhibitory Concentration,Burkholderia mallei,"≧91,400 μg/mL"
same,"inhibition of growth, result in words",Burkholderia mallei,generally did not inhibit B. mallei growth by itself
same,Minimal Inhibitory Concentration,Yersinia pestis,">91,400 μg/mL"
same,"inhibition of growth, result in words",Yersinia pestis,did not inhibit Y. pestis growth at any concentration by itself
